The values below come from patent US20220056149A1 (LUMOSA THERAPEUTICS, published 2022).

Numbering of substitutions follows the chain as printed.

What is called EC50 (read off the curve) is the concentration needed to bring the measured effect to its halfway point.

Assay [1] deals with T1, Human VEGFR2-Fc (Sino Biological) (human, UniProt P35968 20-764).
T1 construct: Bought; not shown: Fc part of a bought fusion protein
Briefly: ELISA, plate coated with human VEGFR2-Fc 1ug/ml, anti-His-HRP detection. On the technique in general: In an ELISA, binding on a coated surface is turned into a signal by an enzyme label.

The target of assay [2] is T2, human ErbB3/Her3-Fc (Acro biosystem) (human, UniProt P21860 20-643).
T2 construct: Bought; also called human HER3; not shown: Fc part of a bought fusion protein
Description: ELISA, plate coated with human ErbB3/Her3-Fc.

For assay [3], the target named is T3, human ErbB2/Her2-Fc (Acro biosystem) (human, UniProt P04626 23-652).
T3 construct: Bought; also called human HER2; not shown: Fc part of a bought fusion protein
Description: ELISA, plate coated with human ErbB2/Her2-Fc.

Assay [4] deals with T4, hEGFR-Fc (Sino Biological) (human, UniProt P00533 25-645).
T4 construct: Bought; also called human EGFR; humans EGFR-Fc protein; not shown: Fc part of a bought fusion protein
Description: antigen binding activity, summary table; assay not named on the sheet.

Assay [5] deals with T1, Human VEGFR2-Fc (Sino Biological). The description is as above.
The target of assay [6] is T4, hEGFR-Fc (Sino Biological). Description: ELISA, plate coated with human EGFR-Fc, anti-His-HRP detection.
In assay [7] the target is T5, human CEACAM5-Fc (novoprotein) (human, UniProt P06731 35-685, limits assumed).
T5 construct: Bought; not shown: Fc part of a bought fusion protein
T5 sequence (looked up): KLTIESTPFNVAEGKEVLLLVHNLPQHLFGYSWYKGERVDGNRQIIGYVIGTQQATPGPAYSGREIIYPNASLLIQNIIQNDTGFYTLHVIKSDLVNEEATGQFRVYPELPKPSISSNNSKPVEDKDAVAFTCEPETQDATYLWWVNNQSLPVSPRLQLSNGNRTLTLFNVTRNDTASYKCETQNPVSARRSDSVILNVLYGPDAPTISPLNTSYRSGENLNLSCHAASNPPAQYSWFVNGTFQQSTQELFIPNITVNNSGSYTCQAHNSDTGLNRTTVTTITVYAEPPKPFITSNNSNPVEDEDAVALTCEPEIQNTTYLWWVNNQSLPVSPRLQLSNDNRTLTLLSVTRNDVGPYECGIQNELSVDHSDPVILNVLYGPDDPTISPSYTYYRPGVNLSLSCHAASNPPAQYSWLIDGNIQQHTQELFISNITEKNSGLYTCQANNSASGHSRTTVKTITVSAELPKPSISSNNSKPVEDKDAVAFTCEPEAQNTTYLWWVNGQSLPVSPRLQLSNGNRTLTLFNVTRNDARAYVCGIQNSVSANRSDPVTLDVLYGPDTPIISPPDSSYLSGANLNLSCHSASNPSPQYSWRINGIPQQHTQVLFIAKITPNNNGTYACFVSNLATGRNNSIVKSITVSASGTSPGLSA
Description: antigen binding activity, summary table; assay not named on the sheet.

T1 sequence (P35968 20-764 limits assumed): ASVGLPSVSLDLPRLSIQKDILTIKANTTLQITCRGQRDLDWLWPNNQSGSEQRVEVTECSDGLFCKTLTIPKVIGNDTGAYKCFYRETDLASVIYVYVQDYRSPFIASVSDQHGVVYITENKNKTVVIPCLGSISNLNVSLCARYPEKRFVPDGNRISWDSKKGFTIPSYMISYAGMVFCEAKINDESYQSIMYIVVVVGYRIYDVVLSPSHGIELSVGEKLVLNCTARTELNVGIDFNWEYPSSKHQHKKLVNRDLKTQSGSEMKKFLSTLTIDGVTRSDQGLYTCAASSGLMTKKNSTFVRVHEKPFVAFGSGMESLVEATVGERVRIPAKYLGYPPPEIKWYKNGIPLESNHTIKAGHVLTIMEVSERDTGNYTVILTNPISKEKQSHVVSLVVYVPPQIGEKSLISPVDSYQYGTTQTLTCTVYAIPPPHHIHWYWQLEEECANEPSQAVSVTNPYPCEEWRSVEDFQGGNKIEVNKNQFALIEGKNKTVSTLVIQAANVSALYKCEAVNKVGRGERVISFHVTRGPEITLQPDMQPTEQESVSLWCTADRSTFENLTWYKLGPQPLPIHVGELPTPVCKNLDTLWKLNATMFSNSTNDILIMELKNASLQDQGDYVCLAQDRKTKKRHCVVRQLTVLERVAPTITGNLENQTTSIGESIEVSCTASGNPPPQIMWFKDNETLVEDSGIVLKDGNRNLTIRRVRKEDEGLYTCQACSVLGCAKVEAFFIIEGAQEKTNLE

B1: 4VGR38-CD-H (VHH)
VHH: QVQLQESGGGSVQAGGSLTLSCEVSGYSVNSNSMGWFRQAPGKEREGVAGINEGGVSTYYANFVQGRFTISQDNAKNMVYLQMNSLKPEDTAIYYCAAGAPDPPPLIESIVKYWGQGTQVTVSS
notes: sdAb-cytosine deaminase fusion with C-terminal His-tag; Built from parts
Consider B1, for which the binding result in assay [1] is “binds”.

B2: BCD090-M2-CDoem3-H (VHH)
VHH: QVQLVQSGGGLVQAGGSLRLSCAFSGRTFSMYTMGWFRQAPGKEREFVAANRGRGLSPDIADSVNGRFTISRDNAKNTLYLQMDSLKPEDTAVYYCAADLQYGSSWPQRSSAEYDYWGQGTTVTVSS
On to B2, for which the “EC50 (read off the curve)” value in assay [2] is roughly 0.5 nM.

B3: 47D5-CDoem3-H (VHH)
VHH: KVQLVESGGGLVQPGGSLRLSCAASGSIFGFNDMAWYRQAPGKQRELVALISRVGVTSSADSVKGRFTISRVNAKDTVYLQMNSLKPEDTAVYYCYMDQRLDGSTLAYWGQGTQVTVSS
notes: as for B1
For B3, in assay [3], the concentration giving a half-maximal response (EC50 (read off the curve)) is roughly 0.2 nM.

B4: Inherbin3-CD-H (other)
antigen binding fragment-CD fusion: MLVYNKLTFQLEPNPHTKGGGGSGGGGSGGGGSVTGGMASKWDQKGMDIAYEEAALGYKEGGVPIGGCLINNKDGSVLGRGHNMRFQKGSATLHGEISTLENCGRLEGKVYKDTTLYTTLSPCDMCTGAIIMYGIPRCVVGENVNFKSKGEKYLQTRGHEVVVVDDERCKKIMKQFIDERPQDWFEDIGEGSSHHHHHH
On to B4, for which the binding result in assay [4] is “binds”.

B5: Inherbin1-CD-H (other)
antigen binding fragment-CD fusion: B4 antigen binding fragment-CD fusion with L2M, V3L, K6P, L7T, F9Y, L11M, E12D, P13V, H16E, T17G
Turning to B5, in assay [4], the binding result is “no binding”.

B6: GE10-CD-H (other)
antigen binding fragment-CD fusion: MLHLWVPEPWTQTGGGGSGGGGSGGGGSVTGGMASKWDQKGMDIAYEEAALGYKEGGVPIGGCLINNKDGSVLGRGHNMRFQKGSATLHGEISTLENCGRLEGKVYKDTTLYTTLSPCDMCTGAIIMYGIPRCVVGENVNFKSKGEKYLQTRGHEVVVVDDERCKKIMKQFIDERPQDWFEDIGEGSSHHHHHH
Consider B6, for which the binding result in assay [4] is “binds”.

B7: GE11-CD-H (other)
antigen binding fragment-CD fusion: B6 antigen binding fragment-CD fusion with L2Y, L4W, W5Y, V6G, P7Y, E8T, W10Q, T11N, Q12V, T13I
As for B7, the binding result in assay [4] is reported as “no binding”.

B8: 3VGR19-CD-H (VHH)
VHH: QVQLQESGGGSVQAGGSLRLSCVASGYSVSKNSMGWFRQAPGKEREGVAGINEGGTATYYANSVKGRFTISQDNAKNTVYLQMNTLKPEDTAIYYCAAGSPDPPPLIESVVKYWGQGTQVTVSS
notes: sdAb-cytosine deaminase fusion with C-terminal His-tag, made in E. coli; Built from parts; An N-terminal Met may precede the sdAb
As to B8, the binding result in assay [5] was “binds”.

B9: 3VGR10-CD-H (VHH)
VHH: B8 VHH with K76R
As to B9, the binding result in assay [5] is “binds”.

B10: 4VGR17-CD-H (VHH)
VHH: B8 VHH with E53Y, S109G
notes: as for B1
For the molecule B10, the concentration giving a half-maximal response (EC50 (read off the curve)) in assay [1] was roughly 0.02 µg/mL.

B11: VHH122-CD-H (VHH)
VHH: EVQLQESGGGLVQAGDSLRLSCLVSGRSFNSYTMGWFRQAPGKEREFVAAILWSGPTTYYADSVKGRFTISRDNAKNTVYLQMNSLKPEDTAVYYCAAALGVLVLAPGNVYSYWGQGTQVTVSS
notes: as for B1
As to B11, the “EC50 (read off the curve)” value in assay [6] was roughly 0.8 nM.

B12: DOM-16-39-CD-H (VHH)
sdAb-CD fusion: MDIQMTQSPTSLSASVGDRVTITCRASQWIGNLLDWYQQKPGEAPKLLIYYASFLQSGVPSRFSGGGFGTDFTLTISSLQPEDFATYYCQQANPAPLTFGQGTKVEIKRGGGGSGGGGSGGGGSVTGGMASKWDQKGMDIAYEEAALGYKEGGVPIGGCLINNKDGSVLGRGHNMRFQKGSATLHGEISTLENCGRLEGKVYKDTTLYTTLSPCDMCTGAIIMYGIPRCVVGENVNFKSKGEKYLQTRGHEVVVVDDERCKKIMKQFIDERPQDWFEDIGEGSSHHHHHH
Regarding B12, in assay [4], the binding result was “binds”.

B13: 2D3-CDoem3-H (VHH)
VHH: EVQLVESGGSLVQPGGSLRLSCAASGFTFDDYAMSWVRQVPGKGLEWVSSINWSGTHTDYADSVKGRFTISRNNANNTLYLQMNSLKSEDTAVYYCAKNWRDAGTTWFEKSGSAGQGTQVTVSS
notes: as for B1
For B13, the “EC50 (read off the curve)” value in assay [3] was roughly 0.1 nM.

B14: 3VGR17-CD-H (VHH)
VHH: QVQLQESGGGSVQAGGSLRLSCAASGYTYCSYDMGWYRQAPGKEREFVSAIDNYGRTGYADSVKGRFTISQDNAKNTSYLQMNSLKPEDTAIYYCKVDVCPDPSRPGRPGYWGQGTQVTVSS
Consider B14, for which, in assay [5], the binding result is on record as “binds”.

B15: NbCEA5-CDoem3-H (VHH)
VHH: QVQLVESGGGSVQAGGSLRLSCAASGDTYGSYWMGWFRQAPGKEREGVAAINRGGGYTVYADSVKGRFTISRDTAKNTVYLQMNSLRPDDTADYYCAASGVLGGLHEDWFNYWGQGTQVTVSS
notes: as for B1
In the case of B15, the binding result in assay [7] was “binds”.
